B1: SEQ ID NO: 17 (ssRNA)
RNA: AGAAGUGCAAUACUUUCGCGGCAUAUGUGCAAACCUUGCCACGACUAUGUGCGCAUAC
modifications: 2'-F C and U; 2'-OH G; 2'-H (deoxy) A
B2: SEQ ID NO: 8 (ssRNA)
RNA: GGGAGAACUUCGACCAGAAGAUCCACUGGUACUACGUGACCCCGCAUAGGCAAUCCUGCUUAUGUGCGCAUACAUGGAUCCUC
modifications: 2'-F C and U; 2'-OH G; 2'-H (deoxy) A
B3: SEQ ID NO: 6 (ssRNA)
RNA: GGGAGAACUUCGACCAGAAGUGCAAUACUUUCGCGGCAUAUGUGCAAACCUUGCCACGACUAUGUGCGCAUACAUGGAUCCUC
modifications: 2'-F C and U; 2'-OH G; 2'-H (deoxy) A

T1 sequence (P01138 122-241, one chain of several): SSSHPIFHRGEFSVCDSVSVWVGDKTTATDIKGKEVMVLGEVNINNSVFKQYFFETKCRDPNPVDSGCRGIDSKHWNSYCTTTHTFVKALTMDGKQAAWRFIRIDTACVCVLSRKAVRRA

The first data set addresses T1, NGF (nerve growth factor) (Homo sapiens, UniProt P01138 P01138:122-241). In words: cell_activity; neurite; TF-1 0.013. The note with it: tags: R&D Systems; chain copies: 2.
On to GGGUCCUGACUAAGAGUUUCCGUCUCGUAGUCUGUUACCC (ssRNA, 2'-OMe G (G8,G34 2'-OH), dA, 2'-F C/U; 5',3' idT) [SEQ ID NO: 77(1)], for which the IC50 (in general, the concentration at which inhibition is half-maximal) is 0.126 nM.

In turn, GGGUCCUGAUUAAGAGUUUCCGUCUCGUAAUCUGUUACCC (ssRNA, 2'-OMe G (G8,G34 2'-OH), dA, 2'-F C/U; 5',3' idT) [SEQ ID NO: 76(1)] yielded a 50% inhibitory concentration (IC50) of 0.117 nM.

The target of a further data set is T1, NGF (nerve growth factor). Nature of the data set: SPR; more than 40N. The note with it: tags: R&D Systems; chain copies: 2. As to the method:
As the measuring apparatus, BIAcore2000 manufactured by BIAcore was used and, as the sensor chip, CM5 that reacts with an amino group was used. […] For the reaction of an amino group on the protein side and a carboxyl group on the chip side, ethyl-3-carbodiimide hydrochloride and N-hydroxysuccinimide were used. After the reaction, blocking by ethanolamine-HCl was performed. The immobilized amount of NGF was set to 3,000-4,000 RU. An aptamer for analyte was prepared to 0.15 μM-0.5 μM. As a running buffer, solution A was used. Here, solution A is a mixed solution of 145 mM sodium chloride, 5.4 mM potassium chloride, 1.8 mM calcium chloride, 0.8 mM magnesium chloride, 20 mM Tris (pH 7.6), 0.05% Tween 20. As a regeneration solution, a mixed solution of 1M NaCl and 50 mM NaOH was used. NGF was immobilized on FC2, and the results of FC1 were subtracted to give a final sensorgram.
The binding activity of these aptamers to NGF was evaluated by the surface plasmon resonance method in the same manner as in Example 1.
A general note: SPR reads the build-up and loss of mass on a sensor chip optically.
On to GCAAUACUUUCGCGGCAUAUGUGCAAACCUUGCCACGACUAUGUGC (ssRNA, 2'-F C and U; 2'-OH G; 2'-H (deoxy) A) [SEQ ID NO: 19], for which the binding result is given as “binds”.

Take UGCAAUACUUUCGCGGCAUAUGUGCAAACCUUGCCACGACUAUGUGCG (ssRNA, 2'-F C and U; 2'-OH G; 2'-H (deoxy) A) [SEQ ID NO: 18]: the binding result was “binds”.

Turning to GGGAAUACUUUCGCGGCAUAUGUGCAAACCUUGCCACGACUAUGUCCC (ssRNA, 2'-F C and U; 2'-OH G; 2'-H (deoxy) A) [SEQ ID NO: 21], the binding result is reported as “binds”.

GUGCAAUACUUUCGCGGCAUAUGUGCAAACCUUGCCACGACUAUGUGCGC (ssRNA, 2'-F C and U; 2'-OH G; 2'-H (deoxy) A) [SEQ ID NO: 20]: the binding result is reported as “binds”.

Turning to B1, the binding result is “binds”.

Another data set addresses T1, NGF (nerve growth factor). In words: SPR; binding maintained on shortening. The note with it: tags: R&D Systems; chain copies: 2.
Turning to GGGUCCUGCGUAAGAGUUUCCGUCUCGUAUGCUGUUACCC (ssRNA, 2'-F C and U; 2'-OH G; 2'-H (deoxy) A) [SEQ ID NO: 90], the binding result is “binds”.

In the case of GGGUCCUGCCUAAGAGUUUCCGUCUCGUAGGCUGUUACCC (ssRNA, 2'-F C and U; 2'-OH G; 2'-H (deoxy) A) [SEQ ID NO: 91], the binding result was “binds”.

Take GGGUCCUGACCAAGAGUUUCCGUCUCGUGGUCUGUACCC (ssRNA, 2'-F C and U; 2'-OH G; 2'-H (deoxy) A) [SEQ ID NO: 92]: the binding result was “binds”.

Another data set deals with T1, NGF (nerve growth factor). In words: SPR; inhibits NGF-receptor binding; inhibits neurite outgrowth at 10 nM. The conditions noted are these: tags: R&D Systems; chain copies: 2.
Take B2: the binding result is reported as “binds”.

B3: the binding result is “binds”.

For the origin of these results see US20140235701, “NGF APTAMER AND APPLICATION THEREOF” (RIBOMIC INC., published 2014).
